Here are results for two molecules from publication PMC7323458 (Nature chemical biology, 2019).

Residue numbers refer to the chain shown, from its start. Names may count otherwise.

This assay addresses T1, β-ketoacyl-ACP-synthase I (FabB) (E. coli, UniProt P0A953 1-406).
T1 sequence: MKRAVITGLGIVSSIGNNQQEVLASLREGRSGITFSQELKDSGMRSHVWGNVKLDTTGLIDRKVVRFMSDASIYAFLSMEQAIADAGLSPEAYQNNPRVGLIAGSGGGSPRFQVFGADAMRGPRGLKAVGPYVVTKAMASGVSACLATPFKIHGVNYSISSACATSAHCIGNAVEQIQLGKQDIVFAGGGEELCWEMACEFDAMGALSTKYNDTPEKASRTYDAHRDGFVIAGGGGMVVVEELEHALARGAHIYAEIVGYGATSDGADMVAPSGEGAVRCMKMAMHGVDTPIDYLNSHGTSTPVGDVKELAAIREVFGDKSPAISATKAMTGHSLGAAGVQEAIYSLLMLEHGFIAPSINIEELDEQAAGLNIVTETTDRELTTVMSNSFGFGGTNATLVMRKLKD
The experiment in a line: NMR titration.

B1: wt C8-AcpP (octanoyl-AcpP) (natural protein, E. coli)
chain: MSTIEERVKKIIGEQLGVKQEEVTNNASFVEDLGADSLDTVELVMALEEEFDTEIPDEEAEKITTVQAAIDYINGHQA
modifications: amide-linked octanoyl (C8) pantetheine probe on the phosphopantetheine serine (S36); 15N, 2H labelled
One may read the Kd as the free concentration of one partner at which half of the binding sites on the other are occupied at equilibrium, for simple one-to-one binding. Take B1: the equilibrium dissociation constant (Kd) stood at 37.6 µM.

B2: D38A C8-AcpP (natural protein, E. coli)
chain: B1 chain with D39A
modifications: amide-linked octanoyl (C8) pantetheine probe on the phosphopantetheine serine (S36); 15N, 2H labelled
The molecule B2 returned a Kd of 167 µM.
